This experiment deals with T1, GST-dSNAP-29 (Drosophila, UniProt Q9W1I8 1-284).
T1 construct: Drosophila SNAP-29 (CG11173, ubisnap/usnp), full-length cDNA amplified from EST clone LD17127 and subcloned into pGEX-KG; predicted mass 32 kDa; Vector pGEX-KG; also called GST-SNAP-29; Drosophila SNAP-29; source: coupled to glutathione beads
T1 sequence (looked up): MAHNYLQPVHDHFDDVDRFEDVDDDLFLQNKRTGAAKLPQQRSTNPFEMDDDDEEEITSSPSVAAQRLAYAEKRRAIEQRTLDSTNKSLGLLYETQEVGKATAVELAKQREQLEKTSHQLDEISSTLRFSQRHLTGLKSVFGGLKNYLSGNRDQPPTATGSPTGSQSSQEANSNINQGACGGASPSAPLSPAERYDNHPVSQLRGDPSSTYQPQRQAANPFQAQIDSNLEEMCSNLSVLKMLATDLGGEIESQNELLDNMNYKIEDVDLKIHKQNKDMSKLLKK
Briefly: pull-down; 0.5 mg GST fusion or GST on 120 uL glutathione beads, incubated with pre-cleared S2 cell lysate (PLC or NP40 lysis buffer, 0.1% gelatin, 0.1% BSA); washes 50 mM HEPES pH 7.5, 150 mM NaCl, 2 mM EDTA; western blot. Particulars: for percent recovered from the lysate: one partner purified. A general note: In western blotting, separated proteins are transferred to a membrane and probed.

For dEHD1, endogenous (natural protein), the percent pulled down from the lysate is 12%. Same read-out and setting: as for DAP160, endogenous (natural protein), the figure is 15%.

B1: dsyntaxin1, endogenous (natural protein, UniProt Q24547 1-291, looked up)
chain: MTKDRLAALHAAQSDDEEETEVAVNVDGHDSYMDDFFAQVEEIRGMIDKVQDNVEEVKKKHSAILSAPQTDEKTKQELEDLMADIKKNANRVRGKLKGIEQNIEQEEQQNKSSADLRIRKTQHSTLSRKFVEVMTEYNRTQTDYRERCKGRIQRQLEITGRPTNDDELEKMLEEGNSSVFTQGIIMETQQAKQTLADIEARHQDIMKLETSIKELHDMFMDMAMLVESQGEMIDRIEYHVEHAMDYVQTATQDTKKALKYQSKARRKKIMILICLTVLGILAASYVSSYFM
notes: Drosophila syntaxin 1, endogenous in S2 cells (pull-down) and in embryos (co-IP); also called dSyx1; source: endogenous, S2 cell lysate; endogenous, Oregon R embryo lysate
On to B1, for which the “percent recovered from the lysate” value was determined as 6%.

B2: dSNAP (Drosophila soluble NSF attachment protein), endogenous (natural protein, Drosophila (endogenous in S2 cells), UniProt Q23983 1-292, looked up)
chain: MGDNEQKALQLMAEAEKKLTQQKGFLGSLFGGSNKVEDAIECYQRAGNMFKMSKNWTKAGECFCEAATLHARAGSRHDAGTCYVDASNCYKKVDVESAVNCLMKSIDIYTDMGRFTMAAKHHQSIAEMYESDPNNLAKSIQHYEQAADYFKGEESVSSANKCMLKVAQYAAQLEDYEKAISIYEQVAASSLESSLLKYSAKEYFFRAALCHLSVDLLNAQHAIEKYAQQYPAFQDSREFKLIKVLCENLEEQNIEGFTEAVKDYDSISRLDQWYTTILLRIKKAADEDPDLR
notes: Drosophila SNAP (soluble NSF attachment protein), endogenous in Schneider S2 cells; also called Drosophila SNAP; source: endogenous, S2 cell lysate
Consider B2, for which the “percent recovered from the lysate” value is around 7%.

B3: dsyntaxin 16, endogenous (natural protein, UniProt Q9VR90 1-352, looked up)
chain: MTSRNLTEVFVIMRNNASKNRNHYDDRRGSDAERLLKHSVREAEEGLELQDDYGTPPAWLDKFEEAQYTMSKIKPKLDELGSLHARHLLRPAFDDQRDDECDIEVLSQIVSKLITSTHRHIQCVRSSIGVGSKMEQCLTVNAVHCALLQLQELTVKFRASQNAYLLQLNSREERSQKYFDDGGGAGAGDVFTNVELGEQSAENFVDSFDNFLQPPAEGKSGNGYLFEDDEQAIDDHFQRPPASRMTQQQLLLFEEENTRVAQHREQEVTKIVKSIYDLNDIFKDLGHMVQEQGTVLDRIDYNVEQTQTRVSEGLRQLHKAEMYQRKNRKMCVILVLAAVTFFMLLLLILTKL
notes: Drosophila syntaxin 16, endogenous in S2 cells (pull-down) and in embryos (co-IP); also called dSyx16; dSyx 16; source: endogenous, S2 cell lysate; endogenous, Oregon R embryo lysate
Turning to B3, the “percent recovered from the lysate” value came out at 4%.

Source of the values: paper PMC3953403, “Drosophila SNAP-29 Is an Essential SNARE That Binds Multiple Proteins Involved in Membrane Traffic” (PLoS ONE, 2014).
